{"source": "paper PMC4846438", "about": "“The crystal structure of human dopamine β-hydroxylase at 2.9 Å resolution” (Science Advances, 2016)", "proteins": {"B1": {"name": "soluble human dopamine β-hydroxylase, residues 40 to 617, FLAG-tagged (enzyme, UniProt P09172 40-617, looked up)", "chain": "SAPRESPLPYHIPLDPEGSLELSWNVSYTQEAIHFQLLVRRLKAGVLFGMSDRGELENADLVVLWTDGDTAYFADAWSDQKGQIHLDPQQDYQLLQVQRTPEGLTLLFKRPFGTCDPKDYLIEDGTVHLVYGILEEPFRSLEAINGSGLQMGLQRVQLLKPNIPEPELPSDACTMEVQAPNIQIPSQETTYWCYIKELPKGFSRHHIIKYEPIVTKGNEALVHHMEVFQCAPEMDSVPHFSGPCDSKMKPDRLNYCRHVLAAWALGAKAFYYPEEAGLAFGGPGSSRYLRLEVHYHNPLVIEGRNDSSGIRLYYTAKLRRFNAGIMELGLVYTPVMAIPPRETAFILTGYCTDKCTQLALPPSGIHIFASQLHTHLTGRKVVTVLVRDGREWEIVNQDNHYSPHFQEIRMLKKVVSVHPGDVLITSCTYNTEDRELATVGGFGILEEMCVNYVHYYPQTQLELCKSAVDAGFLQKYFHLINRFNNEDVCTCPQASVSQQFTSVPWNSFNRDVLKALYSFAPISMHCNKSSAVRFQGEWNLQPLPKVISTLEEPTPQCPTSQGRSPAGPTVVSIGGGKG", "modifications": "glycosylation at Asn64, Asn184, Asn344 and Asn566; intermolecular disulfides C528-C530 and C530-C528 between the two chains of the dimer", "notes": "human dopamine β-hydroxylase, residues 40 to 617; the first 39 residues (signal anchor for type II membrane proteins) left out to obtain soluble DBH; the dimeric fraction was crystallised; A SeMet-labelled form was used for phasing only; also called DBH; dopamine β-monooxygenase; not shown: FLAG, C-terminal, kept"}}, "biological_target": "the molecule itself", "experiment": "SEC; Superdex 200 HR 16/60, 10 mM Hepes, 150 mM NaCl, pH 7.5, 1 ml/min; dimer and tetramer separated; they do not interconvert in the pH interval 4 to 9", "note": "Several values for one entry are separate records, joined by “and”; a condition that tells them apart may be missing. Equal entries are not always repeated.", "data": [{"protein": "B1", "values": [{"measurement": "stoichiometry N", "value": "2 and 4"}]}]}
